Molecular target: T1, CD4 on primary human peripheral lymphocytes (human, UniProt P01730 26-458)
T1 construct: whole, on cells; also called human lymphocytes
Experiment: flow cytometry on human PBMCs (CD3+ lymphocytes), MFI over serial dilutions of BT061
Method: Human PBMCs were isolated by density gradient centrifugation and stained with FITC-labelled anti-CD3 antibody (345763; Becton/Dickinson) and serial dilutions of BT061. BT061 binding was detected with an phycoerythrin labelled human IgG antibody (109-116-098; Jackson, Immunoresearch). By flow cytometric analysis the mean fluorescence intensity of CD3+ BT061 binding lymphocytes was determined.

B1: humanized B-F5 H37L/L4M IgG1 (BT061) (antibody, V domains shown)
VH: EEQLVESGGGLVKPGGSLRLSCAASGFSFSDCRMYWLRQAPGKGLEWIGVISVKSENYGANYAESVRGRFTISRDDSKNTVYLQMNSLKTEDTAVYYCSASYYRYDVGAWFAYWGQGTLVTVSS
VL: DIVMTQSPDSLAVSLGERATINCRASKSVSTSGYSYIYWYQQKPGQPPKLLIYLASILESGVPDRFSGSGSGTDFTLTISSLQAEDVAVYYCQHSRELPWTFGQGTKVEIK
notes: also called hB-F5; humanised B-F5
- EC50: < 0.01 µg/mL

Source: patent US20110059084A1 (BIOTEST, published 2011)
